Test results: publication PMC5502743
Like-named read-outs stand apart in the source and are kept apart here.

Key:
Assay in all cases: single-molecule FRET imaging
[1] = biological target: Cy3B*/Cy7*-labeled β2Δ6-148C/266C (full-length, minimal cysteine β2 adrenergic receptor mutant) (UniProt P07550)
[2] = biological target: Cy3B*/Cy7*-labeled β2Δ6-148C/266C (full-length, minimal cysteine β2 adrenergic receptor mutant) (UniProt P07550); remark: listed apart in the source
[3] = biological target: Cy3B*/Cy7*-labeled β2Δ6-148C/266C (full-length, minimal cysteine β2 adrenergic receptor mutant) (UniProt P07550); remark: listed apart in the source
[4] = biological target: Cy3B*/Cy7*-labeled β2Δ6-148C/266C (full-length, minimal cysteine β2 adrenergic receptor mutant) (UniProt P07550); remark: listed apart in the source
[5] = biological target: Cy3B*/Cy7*-labeled β2Δ6-148C/266C (full-length, minimal cysteine β2 adrenergic receptor mutant) (UniProt P07550); remark: listed apart in the source
[6] = biological target: Cy3B*/Cy7*-labeled β2Δ6-148C/266C (full-length, minimal cysteine β2 adrenergic receptor mutant) (UniProt P07550); remark: listed apart in the source

- k (high→low) (transition rate from high- to low-FRET states) [1]: 0.4 s⁻¹
- k (high→low) (transition rate from high- to low-FRET states) [2]: 0.6 s⁻¹
- percent Gs coupling [2]: 5 to 20%
- k (high→low) (transition rate from high- to low-FRET states) [3]: 1.1 s⁻¹
- k (high→low) (transition rate from high- to low-FRET states) [4]: 0.7 s⁻¹
- k (high→low) (transition rate from high- to low-FRET states) [5]: 0.7 s⁻¹
- k (high→low) (transition rate from high- to low-FRET states) [6]: 0.7 s⁻¹
Substance: Gs heterotrimer (Gαs, Gβ and Gγ) (from UniProt P63092 1-394; P62873 1-340; P59768 1-71) (complex)
